Assay results taken from patent publication US20130224191A1, “NOTUM PROTEIN MODULATORS AND METHODS OF USE” (priority 2010, published 2013).

Key:
[1] = test system: Wnt3A-mediated induction of luciferase in the 293.TCF cells; assay: Wnt3A canonical signaling assay, bioactivity of Notum constructs; type: cell-based, human
Excerpt: To generate a stable population of cells that contain a reporter for the activation of canonical Wnt signaling, HEK 293T cells were transduced with a lentiviral vector, pGreenFirel-TCF (System Biosciences) which encodes a bifunctional GFP and luciferase reporter cassette under the control of a minimal CMV reporter linked to four tandem repeats of the transcriptional response elements for TCF. Transduced cells populations, termed 293.TCF cells, were subsequently used in a Wnt3A canonical signaling assay as follows: 2.5×10^4 293.TCF cells were plated per well of a 96-well tissue culture plate in 50 μL of serum-free DME medium. After 24 hours of serum starvation, 25 μL of various dilutions of conditioned medium (CM) from L/Wnt3A cells (ATCC CRL-2647; Willert, 2003) or undiluted CM from parental L-cells (ATCC CRL-2648) along with 25 μL of DMEM+0.2% FBS were added to each well. Eighteen hours after addition of CM, 100 μL of One-Glo solution (ProMega Corp.) was added to each well. The contents of each well were then mixed thoroughly to lyse the cells, 100 μL of lysate transferred to black 96-well plates, and the luminescence in each well read after 5 mins using a Wallac Victor3 Multilabel Counter (Perkin-Elmer Corp). […] More particularly, as the Wnt3A+ CM media is diluted from 25% down to approximately 3%, activation of the Wnt pathway is reduced with a corresponding decrease in luminescence.
Once the luciferase reporter system was established, assays for determining the bioactivity of various Notum modulators were performed as follows. 2.5×10^4 293.TCF cells were plated per well of a 96-well tissue culture plate in 50 μL of serum-free medium. After 23 hours of serum starvation, 25 μL of DMEM+0.2% FBS containing various Notum modulators at various concentrations (e.g., hNotum-His, hNotum-hFc, hNotum-S232A-His, murine Notum-His, murine Notum-hFc, macaque Notum-hFc, control protein-His or control protein-hFc obtained as per Examples 7, 8 and 13 above), were added to the cells. After 1 hour, 25 μL of Wnt3A or control L-cell CM were added to each well. Eighteen hours after addition of CM, 100 μL of One-Glo solution (ProMega Corp.) was added to each well, the contents of each well mixed thoroughly to lyse the cells, 100 μL of lysate transferred to black 96-well plates, and the luminescence read after 5 minutes.

[2] = 4-MUH fluorescent hydrolase assay, activity of Notum constructs; type: biochemical
Protocol: In addition to the assays described in Examples 23 and 24, a fluorescent esterase substrate, 4-methylumbelliferyl heptanoate (Sigma), can be used to measure the activity of hydrolases using standard assay conditions (Richardson and Smith, 2007, PMID: 17620441; Jacks and Kircher, 1967, PMID: 5582971). Briefly, 4-MUH was dissolved in DMSO to a final concentration of 1.2 mM. This substrate was diluted 1:10 into assay buffer (0.1M Tris, pH 7.5, 50 mM NaCl, 0.05% Brij) and incubated with defined amounts of Notum enzyme or point-mutated Notum enzymes, and enzymatic release of the fluorescent molecule 4-methylumbelliferone monitored (355 nm excitation, 460 nm emission) using a Wallac Victor3 Multilabel Counter (Perkin Elmer).

[3] = Esterase activity of Notum proteins on chromogenic substrates; type: biochemical; details: 1 hour at 37° C.
Protocol: Briefly, PNPA or PNPB were dissolved/diluted in isopropanol to final concentrations of 10 mM. These substrate solutions were diluted 1:10 into assay buffer (0.1% gum arabic, 2.3 mg/mL sodium dexoycholate, 1×PBS) and incubated with defined amounts of hNotum enzyme, and the enzymatic release of the chromophore p-nitrophenol monitored by absorbance measurements at 405 nm.

hydrolysis of the 4-MUH substrate [2]	Molecule	antagonism of Wnt3A-mediated induction of luciferase [1]	esterase activity [3]
retained bioactivity	D141S: human Notum point mutated at D141 to the murine residue (protein) SEGRKTWRRRGQQPPPPPRTEAAPAAGQPVESFPLDFTAVEGNMDSFMAQVKSLAQSLYPCSAQQLNEDLRLHLLLNTSVTCNDGSPAGYYLKESRGSRRWLLFLEGGWYCFNRENCDSRYSTMRRLMSSRDWPRTRTGTGILSSQPEENPYWWNANMVFIPYCSSDVWSGASSKSEKNEYAFMGALIIQEVVRELLGRGLSGAKVLLLAGSSAGGTGVLLNVDRVAEQLEKLGYPAIQVRGLADSGWFLDNKQYRHTDCVDTITCAPTEAIRRGIRYWNGVVPERCRRQFQEGEEWNCFFGYKVYPTLRCPVFVVQWLFDEAQLTVDNVHLTGQPVQEGLRLYIQNLGRELRHTLKDVPASFAPACLSHEIIIRSHWTDVQVKGTSLPRALHCWDRSLHDSHKASKTPLKGCPVHLVDSCPWPHCNPSCPTVRDQFTGQEMNVAQFLMHMGFDMQTVAQPQGLEPSELLGMLSNGS	retained bioactivity	–
retained bioactivity	D141N: human Notum point mutated at D141 to the macaque residue (protein) SEGRKTWRRRGQQPPPPPRTEAAPAAGQPVESFPLDFTAVEGNMDSFMAQVKSLAQSLYPCSAQQLNEDLRLHLLLNTSVTCNDGSPAGYYLKESRGSRRWLLFLEGGWYCFNRENCDSRYNTMRRLMSSRDWPRTRTGTGILSSQPEENPYWWNANMVFIPYCSSDVWSGASSKSEKNEYAFMGALIIQEVVRELLGRGLSGAKVLLLAGSSAGGTGVLLNVDRVAEQLEKLGYPAIQVRGLADSGWFLDNKQYRHTDCVDTITCAPTEAIRRGIRYWNGVVPERCRRQFQEGEEWNCFFGYKVYPTLRCPVFVVQWLFDEAQLTVDNVHLTGQPVQEGLRLYIQNLGRELRHTLKDVPASFAPACLSHEIIIRSHWTDVQVKGTSLPRALHCWDRSLHDSHKASKTPLKGCPVHLVDSCPWPHCNPSCPTVRDQFTGQEMNVAQFLMHMGFDMQTVAQPQGLEPSELLGMLSNGS	retained bioactivity	–
–	murine Notum-His: His tagged murine Notum (protein, left off: small tags and cut ends) SEGRKTWRRRGQQPPQPPPPPPLPQRAEVEPGAGQPVESFPLDFTAVEGNMDSFMAQVKSLAQSLYPCSAQQLNEDLRLHLLLNTSVTCNDGSPAGYYLKESKGSRRWLLFLEGGWYCFNRENCDSRYSTMRRLMSSKDWPHTRTGTGILSSQPEENPHWWNANMVFIPYCSSDVWSGASPKSDKNEYAFMGSLIIQEVVRELLGKGLSGAKVLLLAGSSAGGTGVLLNVDRVAELLEELGYPSIQVRGLADSGWFLDNKQYRRSDCIDTINCAPTDAIRRGIRYWSGMVPERCQRQFKEGEEWNCFFGYKVYPTLRCPVFVVQWLFDEAQLTVDNVHLTGQPVQEGQWLYIQNLGRELRGTLKDVQASFAPACLSHEIIIRSYWTDVQVKGTSLPRALHCWDRSFHDSHKASKTPMKGCPFHLVDSCPWPHCNPSCPTIRDQFTGQEMNVAQFLMHMGFDVQTVAQQQGMEPSKLLGMLSNGN	functionally antagonize	–
–	murine Notum: recombinant murine Notum protein, construct not stated (protein) SEGRKTWRRRGQQPPQPPPPPPLPQRAEVEPGAGQPVESFPLDFTAVEGNMDSFMAQVKSLAQSLYPCSAQQLNEDLRLHLLLNTSVTCNDGSPAGYYLKESKGSRRWLLFLEGGWYCFNRENCDSRYSTMRRLMSSKDWPHTRTGTGILSSQPEENPHWWNANMVFIPYCSSDVWSGASPKSDKNEYAFMGSLIIQEVVRELLGKGLSGAKVLLLAGSSAGGTGVLLNVDRVAELLEELGYPSIQVRGLADSGWFLDNKQYRRSDCIDTINCAPTDAIRRGIRYWSGMVPERCQRQFKEGEEWNCFFGYKVYPTLRCPVFVVQWLFDEAQLTVDNVHLTGQPVQEGQWLYIQNLGRELRGTLKDVQASFAPACLSHEIIIRSYWTDVQVKGTSLPRALHCWDRSFHDSHKASKTPMKGCPFHLVDSCPWPHCNPSCPTIRDQFTGQEMNVAQFLMHMGFDVQTVAQQQGMEPSKLLGMLSNGN	–	display esterase activity
–	murine Notum-hFc: fusion construct of mouse Notum and human Fc region (protein, left off: a dimerising Fc or GST, fusion construct of mouse Notum and human Fc region) SEGRKTWRRRGQQPPQPPPPPPLPQRAEVEPGAGQPVESFPLDFTAVEGNMDSFMAQVKSLAQSLYPCSAQQLNEDLRLHLLLNTSVTCNDGSPAGYYLKESKGSRRWLLFLEGGWYCFNRENCDSRYSTMRRLMSSKDWPHTRTGTGILSSQPEENPHWWNANMVFIPYCSSDVWSGASPKSDKNEYAFMGSLIIQEVVRELLGKGLSGAKVLLLAGSSAGGTGVLLNVDRVAELLEELGYPSIQVRGLADSGWFLDNKQYRRSDCIDTINCAPTDAIRRGIRYWSGMVPERCQRQFKEGEEWNCFFGYKVYPTLRCPVFVVQWLFDEAQLTVDNVHLTGQPVQEGQWLYIQNLGRELRGTLKDVQASFAPACLSHEIIIRSYWTDVQVKGTSLPRALHCWDRSFHDSHKASKTPMKGCPFHLVDSCPWPHCNPSCPTIRDQFTGQEMNVAQFLMHMGFDVQTVAQQQGMEPSKLLGMLSNGN	functionally antagonize	–
–	macaque Notum-hFc: fusion construct of macaque Notum and human Fc region (protein, left off: a dimerising Fc or GST, fusion construct of macaque Notum and human Fc region) SEGRKTWRRRGQQPPPPPRTEAAPAAGQPVESFPLDFTAVEGNMDSFMAQVKSLAQSLYPCSAQQLNEDLRLHLLLNTSVTCNDGSPAGYYLKESRGSRRWLLFLEGGWYCFNRENCDSRYNTMRRLMSSRDWPRTRTGTGILSSQPEENPYWWNANMVFIPYCSSDVWSGASSKSEKNEYAFMGALIIQEVVRELLGRGLSGAKVLLLAGSSAGGTGVLLNVDRVAEQLEELGYPAIQVRGLADSGWFLDNKQYRHTDCVDTITCAPTEAIRRGIRYWNGVVPERCRRQFQEGEEWNCFFGYKIYPTLRCPVFVVQWLFDEAQLTVDNVHLTGQPVQESQRLYIQNLGRELRHTLKDVPASFAPACLSHEIIIRSHWTDVQVKGTSLPRALHCWDRSLHDSHKNSKTPLKGCPVHLVDSCPWPHCNPSCPTVRDQFTGQEMNVAQFLMHMGFDVQTVAQQQGPEPSKLLGL	functionally antagonize	–

Molecule	hydrolysis of the 4-MUH substrate [2]	antagonism of Wnt3A-mediated induction of luciferase [1]	esterase activity [3]
D340A: human Notum with D340A point mutation of the catalytic acidic residue (protein, UniProt Q6P988 20-496, looked up, variant D340A) Palmitoleoyl-protein …: SEGRKTWRRRGQQPPPPPRTEAAPAAGQPVESFPLDFTAVEGNMDSFMAQVKSLAQSLYPCSAQQLNEDLRLHLLLNTSVTCNDGSPAGYYLKESRGSRRWLLFLEGGWYCFNRENCDSRYDTMRRLMSSRDWPRTRTGTGILSSQPEENPYWWNANMVFIPYCSSDVWSGASSKSEKNEYAFMGALIIQEVVRELLGRGLSGAKVLLLAGSSAGGTGVLLNVDRVAEQLEKLGYPAIQVRGLADSGWFLDNKQYRHTDCVDTITCAPTEAIRRGIRYWNGVVPERCRRQFQEGEEWNCFFGYKVYPTLRCPVFVVQWLFAEAQLTVDNVHLTGQPVQEGLRLYIQNLGRELRHTLKDVPASFAPACLSHEIIIRSHWTDVQVKGTSLPRALHCWDRSLHDSHKASKTPLKGCPVHLVDSCPWPHCNPSCPTVRDQFTGQEMNVAQFLMHMGFDMQTVAQPQGLEPSELLGMLSNGS	no ability to hydrolyze the 4-MUH substrate	no ability to antagonize	–
